Results: US20260217779
Changes are numbered by the printed parent chain.

Tests used:
[1] = molecular target: T1, hCXCL11.0022-G1T4k.one//VHn-G1T4h.one.H435R
T1 chain 1: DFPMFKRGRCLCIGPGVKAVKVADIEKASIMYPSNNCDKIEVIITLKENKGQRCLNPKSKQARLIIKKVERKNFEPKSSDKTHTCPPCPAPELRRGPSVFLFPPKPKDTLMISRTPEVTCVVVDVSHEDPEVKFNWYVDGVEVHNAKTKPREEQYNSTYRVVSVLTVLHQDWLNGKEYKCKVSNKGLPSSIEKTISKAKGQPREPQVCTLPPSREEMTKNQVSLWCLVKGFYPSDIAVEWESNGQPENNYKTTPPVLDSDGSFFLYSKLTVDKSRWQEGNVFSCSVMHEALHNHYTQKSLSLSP
T1 chain 2: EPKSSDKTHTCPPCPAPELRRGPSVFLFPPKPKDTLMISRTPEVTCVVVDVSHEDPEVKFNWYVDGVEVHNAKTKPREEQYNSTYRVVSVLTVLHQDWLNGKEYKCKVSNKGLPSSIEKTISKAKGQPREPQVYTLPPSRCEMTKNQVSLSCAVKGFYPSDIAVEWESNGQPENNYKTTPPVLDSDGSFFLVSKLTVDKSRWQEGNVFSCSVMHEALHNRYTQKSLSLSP

[2] = molecular target: T2, hCXCL11.0030-G1T4k.one//VHn-G1T4h.one.H435R
T2 chain 1: T1 chain 1 with D1M
T2 chain 2: T1 chain 2

[3] = molecular target: T3, hCXCL11.0031-G1T4k.one//VHn-G1T4h.one.H435R
T3 chain 1: T1 chain 1 with D1N
T3 chain 2: T1 chain 2

[4] = molecular target: T4, hITIP-G1T4k.one//VHn-G1T4h.one.H435R
T4 chain 1: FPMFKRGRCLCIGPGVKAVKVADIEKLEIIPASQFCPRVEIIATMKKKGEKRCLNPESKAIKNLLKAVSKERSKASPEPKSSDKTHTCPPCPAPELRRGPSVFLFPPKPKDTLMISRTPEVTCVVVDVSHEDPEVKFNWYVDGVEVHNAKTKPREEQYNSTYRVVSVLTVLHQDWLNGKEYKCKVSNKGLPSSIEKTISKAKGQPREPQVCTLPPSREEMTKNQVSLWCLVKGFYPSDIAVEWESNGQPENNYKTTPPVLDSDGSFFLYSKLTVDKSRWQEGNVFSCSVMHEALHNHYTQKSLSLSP
T4 chain 2: T1 chain 2

[5] = molecular target: T5, hITIP0021-G1T4k.one//VHn-G1T4h.one.H435R
T5 chain 1: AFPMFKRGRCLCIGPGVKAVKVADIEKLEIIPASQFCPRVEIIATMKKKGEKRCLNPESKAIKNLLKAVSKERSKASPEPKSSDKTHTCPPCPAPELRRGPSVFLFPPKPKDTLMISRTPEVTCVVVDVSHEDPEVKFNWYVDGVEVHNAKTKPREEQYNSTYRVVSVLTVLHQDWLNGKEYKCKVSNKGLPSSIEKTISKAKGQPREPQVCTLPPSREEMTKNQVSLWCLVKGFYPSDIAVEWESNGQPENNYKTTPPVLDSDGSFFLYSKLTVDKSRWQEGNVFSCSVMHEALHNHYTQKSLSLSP
T5 chain 2: T1 chain 2

[6] = molecular target: T6, hITIP0022-G1T4k.one//VHn-G1T4h.one.H435R
T6 chain 1: T5 chain 1 with A1D
T6 chain 2: T1 chain 2

[7] = molecular target: T7, hITIP0036-G1T4k.one//VHn-G1T4h.one.H435R
T7 chain 1: T5 chain 1 with A1T
T7 chain 2: T1 chain 2

[8] = molecular target: T8, hITIP0039-G1T4k.one//VHn-G1T4h.one.H435R
T8 chain 1: T5 chain 1 with A1Y
T8 chain 2: T1 chain 2

B1: human dipeptidyl peptidase IV (human DPPIV, hDPPIV) (Biolegend, 764102) (protein)
chain: NKGTDDATADSRKTYTLTDYLKNTYRLKLYSLRWISDHEYLYKQENNILVFNAEYGNSSVFLENSTFDEFGHSINDYSISPDGQFILLEYNYVKQWRHSYTASYDIYDLNKRQLITEERIPNNTQWVTWSPVGHKLAYVWNNDIYVKIEPNLPSYRITWTGKEDIIYNGITDWVYEEEVFSAYSALWWSPNGTFLAYAQFNDTEVPLIEYSFYSDESLQYPKTVRVPYPKAGAVNPTVKFFVVNTDSLSSVTNATSIQITAPASMLIGDHYLCDVTWATQERISLQWLRRIQNYSVMDICDYDESSGRWNCLVARQHIEMSTTGWVGRFRPSEPHFTLDGNSFYKIISNEEGYRHICYFQIDKKDCTFITKGTWEVIGIEALTSDYLYYISNEYKGMPGGRNLYKIQLSDYTKVTCLSCELNPERCQYYSVSFSKEAKYYQLRCSGPGLPLYTLHSSVNDKGLRVLEDNSALDKMLQNVQMPSKKLDFIILNETKFWYQMILPPHFDKSKKYPLLLDVYAGPCSQKADTVFRLNWATYLASTENIIVASFDGRGSGYQGDKIMHAINRRLGTFEVEDQIEAARQFSKMGFVDNKRIAIWGWSYGGYVTSMVLGSGSGVFKCGIAVAPVSRWEYYDSVYTERYMGLPTPEDNLDHYRNSTVMSRAENFKQVEYLLIHGTADDNVHFQQSAQISKALVDVGVDFQAMWYTDEDHGIASSTAHQHIYTHMSHFIKQCFSLP
In the case of B1, the “cleavage by hDPPIV (LC/MS mass)” value [1] is reported as “showed no mass change suggestive of peptide bond cleavage by hDPPIV treatment”, the “cleavage by hDPPIV (LC/MS mass)” value [2] is reported as “showed no mass change suggestive of peptide bond cleavage by hDPPIV treatment” and the “cleavage by hDPPIV (LC/MS mass)” value [3] is reported as “showed no mass change suggestive of peptide bond cleavage by hDPPIV treatment”. The “cleavage by hDPPIV (LC/MS mass)” value [4] was “DPPIV treatment reduced each of the masses”, the “cleavage by hDPPIV (LC/MS mass)” value [5] was “showed no mass change suggestive of peptide bond cleavage by hDPPIV treatment” and the “cleavage by hDPPIV (LC/MS mass)” value [6] was “showed no mass change suggestive of peptide bond cleavage by hDPPIV treatment”. For the same protein, the “cleavage by hDPPIV (LC/MS mass)” value [7] was “showed no mass change suggestive of peptide bond cleavage by hDPPIV treatment” and the “cleavage by hDPPIV (LC/MS mass)” value [8] was “showed no mass change suggestive of peptide bond cleavage by hDPPIV treatment”.
